This is an account of results in US8252764B2, “Compositions and methods of use of targeting peptides against placenta and adipose tissues” (priority 2000, dated 2012).

One data set addresses T1, β5 integrin (Homo sapiens, UniProt P18084).
T1 construct: Plates were coated with GST fusion proteins of the cytoplasmic domains of various integrins
T1 sequence (P18084 743-799 limits assumed): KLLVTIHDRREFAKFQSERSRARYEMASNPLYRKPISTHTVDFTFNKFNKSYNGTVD
Description: Annexin V binding to GST-β5 integrin cytoplasmic domain (ELISA, competition). The conditions noted are these: binding dependent on the buffer: low in TBS, high in cytoplasmic buffer. The procedure: FIG. 29A. Competitive binding of Annexin V to β5 integrin with VISY peptide. Binding assays were performed by ELISA.
(§1) Competitive binding assays were performed to examine the binding of Annexin V to β5 integrin and the effect of the VISY peptide. Plates were coated with GST fusion proteins of the cytoplasmic domains of various integrins and Annexin V was added to the plates. Binding of Annexin V was determined using anti-Annexin V antibodies. […] Calcium was used because Annexin V activity has been reported to be modulated by calcium. Binding of Annexin V to GST-β5 was blocked by addition of the VISY peptide (FIG. 29A).
A reciprocal study was performed, using Annexin V to coat plates and adding GST fusion proteins of integrin cytoplasmic domains. Binding was assessed using anti-GST fusion protein antibodies. […] In some studies, calcium ion appeared to interfere with the binding interaction between GST-β5 and Annexin V, with decreased binding observed in the presence of calcium (not shown).
For orientation: In an ELISA, binding on a coated surface is turned into a signal by an enzyme label.

Another data set deals with T2, GST-β1 (Homo sapiens, UniProt P05556).
T2 construct: Plates were coated with GST fusion proteins of the cytoplasmic domains of various integrins
T2 sequence (P05556 752-798 limits assumed): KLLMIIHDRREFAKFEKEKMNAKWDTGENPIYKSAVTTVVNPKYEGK
Description: Annexin V binding to GST-β1 integrin cytoplasmic domain (ELISA). The procedure: as §1

The next data set deals with T3, GST-β3 (Homo sapiens, UniProt P05106).
T3 sequence (P05106 742-788 limits assumed): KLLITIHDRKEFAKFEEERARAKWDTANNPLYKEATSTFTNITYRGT
Description: Annexin V binding to GST-β3 integrin cytoplasmic domain (ELISA). The procedure: as §1

For data set [1], the system named is placenta. The settings on record: GST conjugates-I; 1 mouse sc (predominantly) or iv ~every other day, day 4-day 17, 10 times, Total 800 μg. The text has this: The CARAC peptide (SEQ ID NO:12), an adipose targeting peptide (FE, TREVHRS, SEQ ID NO:13) or fd-tet phage were used as non-placental targeting controls.
Data set [2] concerns mouse villous yolk sac (vys). Description: Peptide localization in placenta (immunohistochemistry, FITC immunofluorescence). It counts as in vivo. The settings on record: 18 dpc pregnant mice, intravenous, 6 h.
Description: Fusion and Recombinant Peptides Carboxyfluorescein (FITC)-conjugated [sequence] […] The FITC-peptide stocks were made by dissolving lyophilized peptides in DMSO to a concentration of 20 mM, after which the peptides were diluted to 1 mM with PBS (phosphate buffered saline) and aliquots were frozen until use. The [sequence] (SEQ ID NO:144) peptide and an unrelated control peptide, [sequence] (SEQ ID NO:87), fused in-frame with GST at the amino-terminus were purified to approximately 90% purity using the BugBuster GST Bind Kit (Novagen, Madison, Wis.). Purified peptides were buffer-exchanged into PBS using Centricon PL-10 columns (Millipore, Bedford, Mass.) and the aliquots were frozen until use. […]
Peptide Localization in Tissues Immunohistochemistry on sections of formalin-fixed, paraffin-embedded mouse tissue was performed as described (Pasqualini et al., 2000; Pasqualini and Ruoslahti, 1996): For phage-peptide immunolocalization, a rabbit anti-fd phage antibody (Sigma Chemicals, St. Louis, Mo.) was used at 1:1,000 dilution and detected with a secondary horseradish peroxidase (HRP)-conjugated antibody. For GST-peptide immunolocalization, a goat anti-GST antibody (Amersham, Piscataway, N.J.) was used at 1:1,000 dilution and detected with a secondary alkaline phosphatase (AP)-conjugated antibody. […]
Data set [3] has as its system placenta. Description: Peptide embryotoxicity in pregnant mice. The class given is in vivo, mouse. The conditions noted are these: subcutaneous injections from ~12 dpc. The text has this:
FIG. 7. TPKTSVT (SEQ ID NO:5) peptide inhibits mouse pregnancy and is teratogenic. (A) Pregnancy courses (representative from 5 independent experiments) in mice subcutaneously injected with the indicated phage or peptides were monitored by daily weighing of the mice upon each injection (arrows). (B) Appearance of a normally developed 20 dpc embryo (left) for control GST fusion treatment compared to a representative 20 dpc embryo (right) resulting from TPKTSVT (SEQ ID NO:5) linked to GST fusion treatment. A severely teratogenic phenotype is observed with the placental targeting fusion peptide. (C) and […]) Hematoxylin/eosin staining of 20 dpc paraffin-embedded placentas derived from mice injected for 7 days with (C) control GST fusion or (D) the TPKTSVT (SEQ ID NO:5) linked to GST fusion peptide. Note hemorrhage (black asterisks), necrosis (white asterisks), and fibrosis (arrowheads). Bar: 500 μm (50 μm for insets).
Peptide Embryotoxicity For peptide embryotoxicity studies, agents were injected at the following daily doses: GST-peptides 0.1 mg (˜3 nMoles), FITC-peptides 50 μg (˜30 nMoles),and phage-peptides 10″ TU. All agents were dissolved in PBS. Mice were injected subcutaneously in the back (5-10 injections per course).
The phage or fusion peptides were subcutaneously injected and the progression of pregnancy was compared with mice injected with control phage, control peptides, or saline. Multiple injections of the TPKTSVT (SEQ ID NO:5) peptide were administered, starting at mid-pregnancy (˜12 days postconception, dpc) in doses non-toxic to the mother.

A further data set deals with placental transporter. Description: Phage recovery from embryos (materno-fetal transfer). The class given is in vivo, mouse. The settings on record: excess of co-injected peptide. The procedure: FIG. 4. The TPKTSVT (SEQ ID NO:5) peptide specifically binds a placental transporter. (A) Recovery of indicated phage from embryos carried by 18 dpc pregnant mice intravenously injected (tail vein) with 10^10 TU of the indicated phage 6 h prior to phage recovery or immunohistochemistry. […] TPKTSVT (SEQ ID NO:5) phage were administered alone (dark cross-hatched) or co-administered with control-GST (black) or TPKTSVT (SEQ ID NO:5) linked to GST (white bar). Shown are mean+/−SEM (standard error) from different embryos. (B-D) Anti-phage IMP immunohistochemistry (arrowheads) in paraffin sections of the vys from the corresponding mice, as indicated. Asterisks mark embryonic capillaries. Bar: 20 μm.
Phage Recovery Mouse placentas and embryonic livers were individually weighed, ground with a glass Dounce homogenizer and suspended in 1 ml of Dulbecco's Modified Eagle's Medium (DMEM) containing proteinase inhibitors (DMEM-prin—1 mM PMSF, 20 μg/ml aprotinin, and 1 μg/ml leupeptin). The suspension was vortexed and washed three times with DMEM-prin. […]
The TPKTSVT (SEQ ID NO:5) Peptide Binds to a Placental Transporter The TPKTSVT (SEQ ID NO:5) peptide localizes to the vys (FIG. 3), which is the tissue primarily responsible for materno-fetal transport in mice. […] Either TPKTSVT (SEQ ID NO:5)-phage or control phage were injected into pregnant mice and the recovery of phage from embryos was determined.

The target in data set [4] is T4, FcRn/β2m receptor complex (Mus musculus, UniProt P01887+Q61559).
T4 construct: from tissue; host or cells: placenta (visceral yolk sac) of 18 dpc pregnant C57BL/6 mice, in vivo
T4 sequence (Q61559 22-365): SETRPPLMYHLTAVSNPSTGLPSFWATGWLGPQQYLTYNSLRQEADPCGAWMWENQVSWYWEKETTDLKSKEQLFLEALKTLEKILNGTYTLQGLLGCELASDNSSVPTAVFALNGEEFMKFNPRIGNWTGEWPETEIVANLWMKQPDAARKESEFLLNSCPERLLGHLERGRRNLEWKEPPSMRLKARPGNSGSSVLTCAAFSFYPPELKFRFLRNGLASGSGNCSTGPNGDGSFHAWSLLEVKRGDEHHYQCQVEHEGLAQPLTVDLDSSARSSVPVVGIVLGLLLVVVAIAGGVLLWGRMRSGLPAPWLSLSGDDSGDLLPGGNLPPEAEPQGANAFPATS
T4 sequence (P01887 21-119): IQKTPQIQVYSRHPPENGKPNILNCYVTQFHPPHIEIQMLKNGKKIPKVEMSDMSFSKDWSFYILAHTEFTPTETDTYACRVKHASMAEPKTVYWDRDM
Description: Placental IgG transcytosis blocking. The class given is in vivo. The settings on record: 18 dpc pregnant mouse, iv, 6 h.
Description: A 18 dpc pregnant mouse was intravenously injected with: (A) 100 mg of control GST fusion or (B) TPKTSVT (SEQ ID NO:5) linked to GST. The IgG distribution in the placenta after 6 h of peptide circulation was detected by anti-mouse IgG immunohistochemistry in paraffin sections.
For in vivo peptide homing validation, 10 μl of FTC-peptide stocks diluted 20-fold with PBS or, 250 μl of 5 mg/ml GST-peptides were injected. For phage homing competition and IgG transcytosis blocking experiments, 500 μl of 5 mg/ml GST-peptides were administered intravenously.
For GST-peptide immunolocalization, a goat anti-GST antibody (Amersham, Piscataway, N.J.) was used at 1:1,000 dilution and detected with a secondary alkaline phosphatase (AP)-conjugated antibody. For mouse IgG immunolocalization, the ARK Peroxidase Kit (DAKO, Carpinteria, Calif.) was used. All immunohistochemistry and FITC immunofluorescence images were captured using an Olympus IX70 microscope and digital camera setup.

On to “Annexin V: 36 kDa endogenous protein analog of the VISY peptide, GenBank GI-468888”, for which the “binding of Annexin V to GST-β5 integrin” value in the data set with β5 integrin was “bound strongly”. Also, the “binding of Annexin V to GST-β1 integrin” value in the data set with GST-β1 is listed as “did not bind”. In the data set with GST-β3, the “binding of Annexin V to GST-β3 integrin” value is reported as “did not bind”.
As for “GST-PA: PA placental targeting peptide (TPKTSVT) fused to GST (glutathion S-transferase)”, in the data set with placenta [1], the “Peptide Effect on Embryo” value is given as “Pregnancy termination” and the “Pregnancy Outcome” value is recorded as “No delivery or fetuses after 21 d”. Moreover, in data set [2], the localization in placenta entry is on record as “readily detectable in the apical cytoplasm of the vys”. For the same substance, the “embryos on the 20th day of pregnancy” value in the data set with placenta [3] is on record as “Growth-retarded, dead, or partially resorbed embryos”. The “progression of pregnancy (weight gain)” value with placenta [3] (compared to control phage or GST-peptide) is on record as “diminished weight gain”. Further, the “effect on materno-fetal transfer / vys uptake of TPKTSVT-phage on co-injection” value with placental transporter was “prevented internalization”. Also, the “effect on placental transfer of IgG to the vys” value in data set [4] was “blocked translocation of IgG through the placenta”.
